Biological target: the molecule itself
Test: SEC

B1: GyrA_ΔCTD (domain or fragment, Bacillus subtilis, UniProt P05653 1-489, looked up)
chain: MSEQNTPQVREINISQEMRTSFLDYAMSVIVSRALPDVRDGLKPVHRRILYAMNDLGMTSDKPYKKSARIVGEVIGKYHPHGDSAVYESMVRMAQDFNYRYMLVDGHGNFGSVDGDSAAAMRYTEARMSKISMEILRDITKDTIDYQDNYDGSEREPVVMPSRFPNLLVNGAAGIAVGMATNIPPHQLGEIIDGVLAVSENPDITIPELMEVIPGPDFPTAGQILGRSGIRKAYESGRGSITIRAKAEIEQTSSGKERIIVTELPYQVNKAKLIEKIADLVRDKKIEGITDLRDESDRTGMRIVIEIRRDANANVILNNLYKQTALQTSFGINLLALVDGQPKVLTLKQCLEHYLDHQKVVIRRRTAYELRKAEARAHILEGLRVALDHLDAVISLIRNSQTAEIARTGLIEQFSLTEKQAQAILDMRLQRLTGLEREKIEEEYQSLVKLIAELKDILANEYKVLEIIREELTEIKERFNDERRTEIVT
- stoichiometry N: 2

Source: paper PMC3239214 (Nucleic Acids Research, 2011)
